From paper PMC13577073, “Cryo-EM structure of the glycosylated protein CgeA in the crust of Bacillus subtilis endospores” (The Journal of Microbiology, 2025)
Where a chain is given by its changes, count along the chain named. Names and notes keep the numbering of the source.

B1: CgeA protein from Bacillus subtilis, wild type (natural protein, B. subtilis, UniProt P42089 1-133, looked up)
chain: MSSENAQLKKDLIKAVLSPLFPTATEGGENMDSNLKALLDAAIDQKVDESETVTAESILDPSLPARWIFARITPGTTISIVTDSGDMIGPVVFVAFDQVHGIVFVTQESSVTPAGQATTLIDVDKVESVTFFS
notes: CgeA, spore crust protein of B. subtilis; synthesized cgeA gene subcloned into NcoI/XhoI of pProEx-Hta; also called CgeA (WT); wild-type CgeA; source: E. coli BL21 (DE3), purified (Ni-NTA, TEV cleavage, HiTrap Q, Superdex 200); not shown: His6, N-terminal, cleaved
B2: CgeA A42C/D97C variant (natural protein, B. subtilis, UniProt P42089 1-133, looked up)
chain: B1 chain with A42C, D97C
notes: CgeA of B. subtilis with two cysteine mutations, made from pProEx-Hta-CgeA (WT) by QuikChange; residues 62-109 and 115-133 are modelled in the cryo-EM structure; The cysteines were designed to form a disulfide bond, which could not be seen unambiguously in the map; also called CgeA A42C/D97C mutant; CgeA mutant; source: E. coli BL21 (DE3), purified (Ni-NTA, TEV cleavage, HiTrap Q, Superdex 200); …

What was measured:
[1] = molecular target: the molecule itself; test: SEC-MALS; Superdex 200 Increase 10/300 GL; 20 mM Tris-HCl (pH 8.0), 150 mM NaCl; DAWN HELIOS II
[2] = molecular target: the molecule itself; test: SEC; wild type and A42C/D97C mutant compared; Superdex 200 column calibrated with reference proteins

Protein | stoichiometry N [1] | stoichiometry N [2]
B1 | 6 | 
B2 |  | 6
